Experimental data published in patent US20020155503.

With “recombinant form of the human Syk enzyme” the “phosphorylation of library peptide, anti-phosphotyrosine ELISA (absorbance at 450 nm); preferred substrate of the sub-set” value (shortened to “phosphorylation of library peptide”) (Asp-Glu-Glu-Asp-Tyr) was “Library Sub-Set 1 Asp-Glu-Glu-Asp-Tyr [SEQ ID No. 11]”, the “phosphorylation of library peptide” value (Asp-Glu-Glu-Tyr-Asp) was “Library Sub-Set 2 Asp-Glu-Glu-Tyr-Asp [SEQ ID No. 12]” and the “phosphorylation of library peptide” value (Asp-Glu-Tyr-Glu-Asp) was “Library Sub-Set 3Asp-Glu-Tyr-Glu-Asp [SEQ ID No. 13]”. The “phosphorylation of library peptide” value (Asp-Tyr-Glu-Glu-Val) was “Library Sub-Set 4 Asp-Tyr-Glu-Glu-Val [SEQ ID No. 14]” and the “phosphorylation of library peptide” value (Tyr-Ser-Ile-Ile-Nle) was “Library Sub-Set 5 Tyr-Ser-Ile-Ile-Nle [SEQ ID No. 15]”.
